Laboratory results reported in the supplement of paper PMC9170038.

Tested on: MS2 coat protein
Assay: apparent KD of MS2 coat protein; higher = weaker reporter binding
Details: Eterna round: R107
Summary of the method: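 For every design, apparent KD is the median of normalised binding-curve fits from its clusters. The RNA switches were transcribed on-chip from Illumina sequencing clusters and titrated with SNAP-549-labelled MS2 coat protein (twofold steps, 0.7 or 1.5 nM to 3 µM; 0.8–1.5 h to 10–20 min per step). Titrations used 100 mM Tris-HCl pH 7.5, 80 mM KCl, 4 mM MgCl2, without or with constant ligand.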

[1] = input ligand: theophylline 20 uM
[2] = input ligand: theophylline 2 mM
[3] = input ligand: tryptophan 2.4 mM

Sequence: GGGUCGCGUUCGGCCGCCACUUGGAAACAUGAGGAUCACCCAUGUCAUAUGGUGGGACAUGUUGUAAGGACCGGGAACCGUCCUA [theeternabot_exclusion_MS2_Trp_B_11]
- apparent KD of MS2 coat protein (input ligand: arginine 13.2 mM): 34.6 nM
- apparent KD of MS2 coat protein [1]: 82.1 nM
- apparent KD of MS2 coat protein [2]: 83.4 nM

Sequence: GGGUGCGGCACGGCCGCCACUGCGGUGGUGUGACAUGAGGAUCACCCAUGUUGUCAUGCGGCCCUUAGGACCGGGUGCCGUGCCC [#1 Exclusion - Tryptophan B Attempt #13 (HarryS)]
- apparent KD of MS2 coat protein (input ligand: arginine 13.2 mM): 39.5 nM
- apparent KD of MS2 coat protein (input ligand: none): 33.7 nM
- apparent KD of MS2 coat protein [1]: 60.9 nM
- apparent KD of MS2 coat protein [2]: 62.4 nM
- apparent KD of MS2 coat protein [3]: 43.8 nM

Sequence: GGGUGGUAGGCGGCCGCCACUGAUUUUCAUUCCUGGAUGACAUGAGGAUCACCCAUGUUUACGGGCAGGACCGGGCCUGCUGUGG [aaaW]
- apparent KD of MS2 coat protein (input ligand: arginine 13.2 mM): 34.8 nM
- apparent KD of MS2 coat protein [1]: 68.4 nM
- apparent KD of MS2 coat protein [2]: 66.6 nM

Sequence: GGGUGUGAUCCGGAUACCAGCGAACAUGAGGAUCACCCAUGUGACCUGAGAUCGGCUCUACGCCCUUGGCAGCCGCGGUCGCAGG [Same State Theophylline B GF13]
- apparent KD of MS2 coat protein (input ligand: arginine 13.2 mM): 23 nM
- apparent KD of MS2 coat protein [1]: 19.5 nM
- apparent KD of MS2 coat protein [2]: 15.4 nM
- apparent KD of MS2 coat protein [3]: 12.4 nM

Sequence: GGUACAUGAGGAUCACCCAUGUAUGGGUACCGAGGACCGGUACGGCCGCCACUCGCAGGACAUGAGGAUCACCCAUGUGCAACCG [SSTA DOUBLE!!! :-D #11]
- apparent KD of MS2 coat protein (input ligand: arginine 13.2 mM): 61 nM
- apparent KD of MS2 coat protein (input ligand: none): 142 nM
- apparent KD of MS2 coat protein [1]: 144 nM
- apparent KD of MS2 coat protein [2]: 184 nM
- apparent KD of MS2 coat protein [3]: 312 nM

Sequence: GGUCGCCAACAUGGGUCGGUGAAAUGGGAAGGAGCGAGCGAGAGCUCAGGUAGGUCGCCCAAACAUGAGGAUCACCCAUGUAAUA [SSArg-A #28 UUU adds V2]
- apparent KD of MS2 coat protein (input ligand: arginine 13.2 mM): 21 nM
- apparent KD of MS2 coat protein (input ligand: none): 125 nM
- apparent KD of MS2 coat protein [1]: 113 nM
- apparent KD of MS2 coat protein [2]: 74.8 nM
- apparent KD of MS2 coat protein [3]: 53.4 nM

Sequence: GGUCUCGAGAGCGAUACCAGCUUGAUCGUACUGGCCUGGUACAUGAGGAUCACCCAUGUAAGCCCUUGGCAGCGCUCUCGAGACC [#1 Exclusion - Theophylline B Attempt #7 (HarryS)]
- apparent KD of MS2 coat protein (input ligand: arginine 13.2 mM): 9.53 nM
- apparent KD of MS2 coat protein (input ligand: none): 11.4 nM
- apparent KD of MS2 coat protein [1]: 15.6 nM
- apparent KD of MS2 coat protein [2]: 30.1 nM
- apparent KD of MS2 coat protein [3]: 14 nM

Sequence: GGUCUGAAAACCGAUCAAAGAUCGGAAGAUACCAGAGGGUGAUCCCUCCCUUGGCAGCUUCACAUGAGGAUCACCCAUGUAGACC [Omei inspired #BothOrNeither]
- apparent KD of MS2 coat protein (input ligand: arginine 13.2 mM): 29.3 nM
- apparent KD of MS2 coat protein [1]: 188 nM
- apparent KD of MS2 coat protein [3]: 82.5 nM

Sequence: GGUGGCGGGACUGAUACCAGCCACCACCGAUAGACCACAUGAGGAUCACCCAUGUUGGGUGGCCCUUGGCAGCAGUCUUGCUGCU [#1 Same State - Theophylline B Attempt #13 (HarryS)]
- apparent KD of MS2 coat protein (input ligand: arginine 13.2 mM): 64.1 nM
- apparent KD of MS2 coat protein [1]: 409 nM
- apparent KD of MS2 coat protein [3]: 586 nM

Sequence: GGUGGCUGGAUCGAUACCAGCCACCACCGAUAGACCACAUGAGGAUCACCCAUGUUGGGUGGCCCUUGGCAGCGGUCCGGCUGCC [#1 Same State - Theophylline B Attempt #7 (HarryS)]
- apparent KD of MS2 coat protein (input ligand: arginine 13.2 mM): 126 nM
- apparent KD of MS2 coat protein [1]: 679 nM
- apparent KD of MS2 coat protein [3]: 759 nM

Sequence: GGUGGGAGCAACGAUACCAGCUACAUGAGGAUCACCCAUGUGGAAUGGGAGUCAACAGCGAGCCCUUGGCAGCGUUAGACCCAAA [Bebeeserdi]
- apparent KD of MS2 coat protein (input ligand: arginine 13.2 mM): 13.2 nM
- apparent KD of MS2 coat protein (input ligand: none): 11.3 nM
- apparent KD of MS2 coat protein [1]: 20.4 nM
- apparent KD of MS2 coat protein [2]: 128 nM
- apparent KD of MS2 coat protein [3]: 11.6 nM

Sequence: GGUUGAUAUAUAUAUAUAUUGAUUACUGAAGGAGCGGGAAAUAACCCAGGUAGGUCGCAGAGAUCCACAUGAGGAUCACCCAUGU [!0.F]
- apparent KD of MS2 coat protein (input ligand: arginine 13.2 mM): 31.9 nM
- apparent KD of MS2 coat protein (input ligand: none): 42.7 nM
- apparent KD of MS2 coat protein [1]: 50.4 nM
- apparent KD of MS2 coat protein [2]: 60.5 nM
- apparent KD of MS2 coat protein [3]: 56.9 nM

Sequence: GGUUGGUGUGGAGACAUAUUGAUUACUGAAGGAGCGGGAAUAAACCCAGGUAGGUCGCAGAGAUCCACAUGAGGAUCACCCAUGU [!0.P]
- apparent KD of MS2 coat protein (input ligand: arginine 13.2 mM): 121 nM
- apparent KD of MS2 coat protein (input ligand: none): 44.8 nM
- apparent KD of MS2 coat protein [1]: 42.8 nM
- apparent KD of MS2 coat protein [2]: 41.2 nM
- apparent KD of MS2 coat protein [3]: 22.4 nM

Sequence: GUAAUAUACAGAAGGAGCGUGAUAGUGAGCUUGUACAACAUGAGGAUCACCCAUGUAUAAUCACAGGUAGGUCGCUGUAUAGGGU [Arg B SS t2]
- apparent KD of MS2 coat protein (input ligand: arginine 13.2 mM): 17 nM
- apparent KD of MS2 coat protein (input ligand: none): 16.1 nM
- apparent KD of MS2 coat protein [1]: 21.9 nM
- apparent KD of MS2 coat protein [2]: 15.4 nM
- apparent KD of MS2 coat protein [3]: 17.8 nM

Sequence: GUACAUGAGGAUCACCCAUGUAUAGUUGAAGGAGCGACCGGAGGGUCAGGUAGGUCGCAGCACAUGGCGUCAACCCGUGUAUGCC [#1 Exclusion - Arginine A Attempt #25 (Inspired by Pi)]
- apparent KD of MS2 coat protein (input ligand: arginine 13.2 mM): 15.2 nM
- apparent KD of MS2 coat protein (input ligand: none): 17.3 nM
- apparent KD of MS2 coat protein [1]: 22.7 nM
- apparent KD of MS2 coat protein [2]: 18.5 nM
- apparent KD of MS2 coat protein [3]: 18.6 nM

Sequence: GUACAUGAGGAUCACCCAUGUGGUAGGGAUACCAGCCAGAAGAAAGGCCCUUGGCAGCUUGUAUUUAGUGUGGGUUUGUUUGUUC [Exclusion - Theophylline A]
- apparent KD of MS2 coat protein (input ligand: arginine 13.2 mM): 29 nM
- apparent KD of MS2 coat protein [1]: 40.3 nM
- apparent KD of MS2 coat protein [3]: 25.6 nM
